Experiment [1] concerns the target C9 (UniProt P02748 22-559). Nature of the experiment: cell-based or functional assay.
Experiment [2] has as its target C3b (human, UniProt P01024 749-1663; P01024 23-667). Put plainly: cell-based or functional assay.

C9, sequence (P02748 22-559 limits assumed): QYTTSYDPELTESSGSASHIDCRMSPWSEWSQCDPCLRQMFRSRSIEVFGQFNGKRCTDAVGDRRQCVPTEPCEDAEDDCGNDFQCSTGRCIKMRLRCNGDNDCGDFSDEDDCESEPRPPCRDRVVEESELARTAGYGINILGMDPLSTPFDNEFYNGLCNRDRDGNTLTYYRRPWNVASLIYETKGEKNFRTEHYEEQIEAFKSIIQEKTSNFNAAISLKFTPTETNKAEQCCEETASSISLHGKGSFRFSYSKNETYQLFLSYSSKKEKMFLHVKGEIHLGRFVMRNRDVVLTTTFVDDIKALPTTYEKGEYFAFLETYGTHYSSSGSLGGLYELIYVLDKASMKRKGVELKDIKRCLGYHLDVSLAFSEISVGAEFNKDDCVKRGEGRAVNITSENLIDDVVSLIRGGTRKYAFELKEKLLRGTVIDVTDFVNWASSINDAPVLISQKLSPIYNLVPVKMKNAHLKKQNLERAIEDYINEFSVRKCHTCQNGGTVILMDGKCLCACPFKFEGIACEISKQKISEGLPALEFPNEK
C3b, sequence (P01024 749-1663 limits assumed, chain 1 of 2): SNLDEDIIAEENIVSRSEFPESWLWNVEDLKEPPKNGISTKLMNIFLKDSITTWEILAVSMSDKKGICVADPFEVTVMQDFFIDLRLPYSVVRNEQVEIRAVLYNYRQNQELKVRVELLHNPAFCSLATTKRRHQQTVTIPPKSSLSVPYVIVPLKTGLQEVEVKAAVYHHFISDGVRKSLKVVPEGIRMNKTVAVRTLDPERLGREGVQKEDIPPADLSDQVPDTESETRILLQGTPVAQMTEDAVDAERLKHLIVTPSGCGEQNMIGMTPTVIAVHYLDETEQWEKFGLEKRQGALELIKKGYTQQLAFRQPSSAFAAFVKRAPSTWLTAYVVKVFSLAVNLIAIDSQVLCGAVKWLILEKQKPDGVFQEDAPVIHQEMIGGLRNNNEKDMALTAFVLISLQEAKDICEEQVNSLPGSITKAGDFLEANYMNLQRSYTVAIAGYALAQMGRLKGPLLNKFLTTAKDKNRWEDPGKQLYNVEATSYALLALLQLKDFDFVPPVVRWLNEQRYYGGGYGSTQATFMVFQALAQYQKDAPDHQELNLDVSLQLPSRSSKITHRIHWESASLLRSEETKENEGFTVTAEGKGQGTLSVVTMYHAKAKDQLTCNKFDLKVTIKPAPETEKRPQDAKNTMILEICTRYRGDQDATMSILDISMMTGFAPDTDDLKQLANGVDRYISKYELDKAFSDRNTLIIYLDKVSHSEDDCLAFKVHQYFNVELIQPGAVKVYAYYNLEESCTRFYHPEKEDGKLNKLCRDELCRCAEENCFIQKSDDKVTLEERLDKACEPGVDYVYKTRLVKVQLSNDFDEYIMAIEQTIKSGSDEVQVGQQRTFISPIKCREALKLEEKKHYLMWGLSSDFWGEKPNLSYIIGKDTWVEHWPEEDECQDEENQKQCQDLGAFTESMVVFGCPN
C3b, sequence (P01024 23-667 limits assumed, chain 2 of 2): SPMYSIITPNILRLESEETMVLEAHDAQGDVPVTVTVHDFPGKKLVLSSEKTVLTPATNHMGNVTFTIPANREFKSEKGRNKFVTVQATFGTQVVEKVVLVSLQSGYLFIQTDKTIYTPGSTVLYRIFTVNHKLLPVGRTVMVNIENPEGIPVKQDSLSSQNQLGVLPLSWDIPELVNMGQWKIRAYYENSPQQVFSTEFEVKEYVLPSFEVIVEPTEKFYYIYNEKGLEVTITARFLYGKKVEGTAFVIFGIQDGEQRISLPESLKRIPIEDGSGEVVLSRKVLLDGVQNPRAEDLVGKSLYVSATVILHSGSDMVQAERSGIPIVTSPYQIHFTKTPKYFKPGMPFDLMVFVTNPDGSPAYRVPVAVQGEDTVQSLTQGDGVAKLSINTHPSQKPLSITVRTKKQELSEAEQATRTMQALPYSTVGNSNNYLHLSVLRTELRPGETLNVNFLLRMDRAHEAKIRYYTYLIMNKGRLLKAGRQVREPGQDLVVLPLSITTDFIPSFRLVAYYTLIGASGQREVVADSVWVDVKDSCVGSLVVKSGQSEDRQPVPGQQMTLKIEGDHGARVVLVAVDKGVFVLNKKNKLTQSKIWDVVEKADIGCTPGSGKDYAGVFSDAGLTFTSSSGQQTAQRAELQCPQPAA

With “sCD59 (soluble CD59, positive control) (from UniProt P13987 26-102)”, the reduction in lysis of sheep erythrocytes carrying C5b-8 after addition of C9, compared to GFP media containing C9 in experiment [1] worked out at 21%.

B1: Dual Terminator of Active Complement (DTAC) (other)
chain: GGDCGLPPDVPNAQPALEGRTSFPEDTVITYKCEESFVKIPGEKDSVICLKGSQWSDIEEFCNRSCEVPTRLNSASLKQPYITQNYFPVGTVVEYECRPGYRREPSLSPKLTCLQNLKWSTAVEFCKKKSCPNPGEIRNGQIDVPGGILFGATISFSCNTGYKLFGSTSSFCLISGSSVQWSDPLPECREIYCPAPPQIDNGIIQGERDHYGYRQSVTYACNKGFTMIGEHSIYCTVNNDEGEWSGPPPECRGKSLTSKVPPTVQKPTTVNVPTTEVSPTSQKTTTKTTTPNAQATRSTPVSRTTKHFHETTPNKGSGTTSGTTGGGGGLQCYNCPNPTADCKTAVNCSSDFDACLITKAGLQVYNKCWKFEHCNFNDVTTRLRENELTYYCCKKDLCNFNEQLE
modifications: glycosylated (about 76 kDa band observed)
Regarding B1, in experiment [1], the “reduction of release of hemoglobin from sheep erythrocytes carrying C5b-8 after addition of C9, relative to media from pGFP-transfected cells” value was found to be 34.8%.

B2: Soluble Active Complement Terminator (SACT) (other)
chain: GCEEPPTFEAMELIGKPKPYYEIGERVDYKCKKGYFYIPPLATHTICDRNHTWLPVSDDACYRETCPYIRDPLNGQAVPANGTYEFGYQMHFICNEGYYLIGEEILYCELKGSVAIWSGKPPICEKVLCTPPPKIKNGKHTFSEVEVFEYLDAVTYSCDPAPGPDPFSLIGESTIYCGDNSVWSRAAPECKVVKCRFPVVENGKQISGFGKKFYYKATVMFECDKGFYLDGSDTIVCDSNSTWDPPVPKCLKVGGGGGGDCGLPPDVPNAQPALEGRTSFPEDTVITYKCEESFVKIPGEKDSVICLKGSQWSDIEEFCNRSCEVPTRLNSASLKQPYITQNYFPVGTVVEYECRPGYRREPSLSPKLTCLQNLKWSTAVEFCKKKSCPNPGEIRNGQIDVPGGILFGATISFSCNTGYKLFGSTSSFCLISGSSVQWSDPLPECREIYCPAPPQIDNGIIQGERDHYGYRQSVTYACNKGFTMIGEHSIYCTVNNDEGEWSGPPPECRGKSLTSKVPPTVQKPTTVNVPTTEVSPTSQKTTTKTTTPNAQATRSTPVSRTTKHFHETTPNKGSGTTSGTTGGGGGLQCYNCPNPTADCKTAVNCSSDFDACLITKAGLQVYNKCWKFEHCNFNDVTTRLRENELTYYCCKKDLCNFNEQLE
modifications: N- and O-linked glycosylation (about 110 kDa band observed)
In the case of B2, the “reduction of release of hemoglobin from sheep erythrocytes carrying C5b-8 after addition of C9, relative to media from pGFP-transfected cells” value in experiment [1] worked out at 29.9%.

B3: soluble terminator of activated complement (STAC) (other)
chain: LQCYNCPNPTADCKTAVNCSSDFDACLITKAGLQVYNKCWKFEHCNFNDVTTRLRENELTYYCCKKDLCNFNEQLEGGGGGCEEPPTFEAMELIGKPKPYYEIGERVDYKCKKGYFYIPPLATHTICDRNHTWLPVSDDACYRETCPYIRDPLNGQAVPANGTYEFGYQMHFICNEGYYLIGEEILYCELKGSVAIWSGKPPICEKVLCTPPPKIKNGKHTFSEVEVFEYLDAVTYSCDPAPGPDPFSLIGESTIYCGDNSVWSRAAPECKVVKCRFPVVENGKQISGFGKKFYYKATVMFECDKGFYLDGSDTIVCDSNSTWDPPVPKCLKVGGGGGGDCGLPPDVPNAQPALEGRTSFPEDTVITYKCEESFVKIPGEKDSVICLKGSQWSDIEEFCNRSCEVPTRLNSASLKQPYITQNYFPVGTVVEYECRPGYRREPSLSPKLTCLQNLKWSTAVEFCKKKSCPNPGEIRNGQIDVPGGILFGATISFSCNTGYKLFGSTSSFCLISGSSVQWSDPLPECREIYCPAPPQIDNGIIQGERDHYGYRQSVTYACNKGFTMIGEHSIYCTVNNDEGEWSGPPPECRGKSLTSKVPPTVQKPTTVNVPTTEVSPTSQKTTTKTTTPNAQATRSTPVSRTTKHFHETTPNKGSGTTSGTT
With B3, in experiment [2], the “reduction in C3b α′ chain signal intensity in the presence of Factor I, relative to media from pGFP transfected cells (quantitative western blot)” value worked out at 34.3%.

The values are drawn from patent US20210138031A1 (TRUSTEES OF TUFTS COLLEGE, published 2021).
